Measured values: patent publication US20240361316A1 (ORASURE TECHNOLOGIES, published 2024)

Target: recombinant SARS-CoV-2 Spike 1 subunit (S1), Alpha S1 construct 1 (SARS-CoV-2 (WHO Alpha (WT) variant, …, UniProt P0DTC2 14-674))

B1: recombinant biotinylated human angiotensin-converting enzyme 2 (ACE2-biotin), construct hACE-GS-6xHIS (receptor)
chain: STIEEQAKTFLDKFNHEAEDLFYQSSLASWNYNTNITEENVQNMNNAGDKWSAFLKEQSTLAQMYPLQEIQNLTVKLQLQALQQNGSSVLSEDKSKRLNTILNTMSTIYSTGKVCNPDNPQECLLLEPGLNEIMANSLDYNERLWAWESWRSEVGKQLRPLYEEYVVLKNEMARANHYEDYGDYWRGDYEVNGVDGYDYSRGQLIEDVEHTFEEIKPLYEHLHAYVRAKLMNAYPSYISPIGCLPAHLLGDMWGRFWTNLYSLTVPFGQKPNIDVTDAMVDQAWDAQRIFKEAEKFFVSVGLPNMTQGFWENSMLTDPGNVQKAVCHPTAWDLGKGDFRILMCTKVTMDDFLTAHHEMGHIQYDMAYAAQPFLLRNGANEGFHEAVGEIMSLSAATPKHLKSIGLLSPDFQEDNETEINFLLKQALTIVGTLPFTYMLEKWRWMVFKGEIPKDQWMKKWWEMKREIVGVVEPVPHDETYCDPASLFHVSNDYSFIRYYTRTLYQFQFQEALCQAAKHEGPLHKCDISNSTEAGQKLFNMLRLGKSEPWTLALENVVGAKNMNVRPLLNYFEPLFTWLKDQNKNSFVGWSTDGGGGSGGGGSHHHHHHH
modifications: biotinylated, 1-10 biotins per ACE2 [mole:mole]; positions not given
- EC50: 500 pM
